Measured values published in the Human Domainome abundance scans (Beltran et al. 2025).
± gives the uncertainty stated by the source.

B1: SWI/SNF-related matrix-associated actin-dependent regulator of chromatin subfamily B member 1, residues 181 to 248; numbered along this chain, Q12824 (parent)
chain: SQPEVLVPIRLDMEIDGQKLRDAFTWNMNEKLMTPEMFSEILCDDLDLNPLTFVPAIASAIRQQIESY

Variants of: B1
Experiment: abundance fitness (aPCA) (normalised: wild type 0, dead -1); higher = more abundant; growth selection in yeast, the domain comes from the species named
Settings: Homo sapiens

| Variant | abundance fitness |
| --- | --- |
| I61W | -0.989 ± 0.25 |
| I61V | -0.536 ± 0.1 |
| I61K | -0.75 ± 0.17 |
| I61R | -0.878 ± 0.12 |
| P50R | 0.021 ± 0.045 |
| P50C | -0.751 ± 0.49 |
| P50V | -0.772 ± 0.085 |
| P50A | -0.292 ± 0.06 |
| P50G | -0.77 ± 0.047 |
| P50N | -0.567 ± 0.1 |
| P50Q | -0.508 ± 0.15 |
| I15G | -0.97 ± 0.25 |
| I15C | -0.702 ± 0.19 |
| S67C | 0.003 ± 0.052 |
| S67D | -0.055 ± 0.12 |
| S67M | -0.103 ± 0.13 |
| S67F | -0.06 ± 0.066 |
| S67P | -0.055 ± 0.045 |
| S67Y | -0.179 ± 0.12 |
| S67W | -0.234 ± 0.083 |
| V54P | -0.593 ± 0.23 |
| V54A | -0.119 ± 0.44 |
| L6M | 0.141 ± 0.083 |
| L6A | -0.219 ± 0.24 |

| Variant | abundance fitness |
| --- | --- |
| L6R | -0.078 ± 0.06 |
| L6S | 0.036 ± 0.06 |
| Y68I | -0.541 ± 0.14 |
| Y68A | -0.127 ± 0.051 |
| Y68V | -0.373 ± 0.11 |
| Y68M | -0.641 ± 0.29 |
| Y68C | -0.643 ± 0.21 |
| Y68T | -0.444 ± 0.15 |
| A23L | -0.387 ± 0.15 |
| A23T | 0.155 ± 0.056 |
| A23W | -0.144 ± 0.039 |
| A23Y | -0.147 ± 0.11 |
| A23P | -0.599 ± 0.28 |
| D16A | -0.161 ± 0.035 |
| D16V | -1.02 ± 0.14 |
| D16S | -0.39 ± 0.048 |
| D16T | -0.801 ± 0.16 |
| D16Y | -0.546 ± 0.086 |
| D16R | -0.415 ± 0.044 |
| D16E | -0.042 ± 0.06 |
| L20I | -0.013 ± 0.14 |
| L20E | -0.94 ± 0.32 |
| L20M | -0.655 ± 0.19 |
| S39P | -0.685 ± 0.38 |

| Variant | abundance fitness |
| --- | --- |
| L51H | 0.002 ± 0.083 |
| L51D | 0.125 ± 0.18 |
| L11F | -0.215 ± 0.18 |
| L11P | -0.578 ± 0.42 |
| L11T | -0.057 ± 0.13 |
| L11V | -0.624 ± 0.24 |
| E4G | -0.354 ± 0.17 |
| E4M | -0.201 ± 0.074 |
| E4A | -0.166 ± 0.062 |
| E4D | -0.031 ± 0.088 |
| E4F | -0.294 ± 0.098 |
| K31T | 0.084 ± 0.096 |
| K31V | -0.146 ± 0.061 |
| N27P | -0.512 ± 0.15 |
| N27A | -0.754 ± 0.17 |
| N27T | -0.552 ± 0.3 |
| S1G | -0.061 ± 0.059 |
| S1T | -0.09 ± 0.066 |
| S1D | -0.123 ± 0.27 |
| S1W | -0.435 ± 0.074 |
| S1P | -0.109 ± 0.083 |
| S1M | 0.127 ± 0.071 |
| S1F | -0.132 ± 0.13 |
| S1K | 0.167 ± 0.077 |

| Variant | abundance fitness |
| --- | --- |
| R10Q | 0.076 ± 0.083 |
| L42I | -0.005 ± 0.082 |
| L42G | -0.909 ± 0.1 |
| L42P | -0.33 ± 0.1 |
| L42C | -0.846 ± 0.2 |
| L42N | -0.549 ± 0.11 |
| L42V | -0.111 ± 0.061 |
| F24M | -0.71 ± 0.11 |
| F24K | -0.941 ± 0.16 |
| F24G | -0.884 ± 0.092 |
| F24C | -0.702 ± 0.15 |
| F24S | -0.822 ± 0.098 |
| V5S | -0.174 ± 0.11 |
| V5H | 0.505 ± 0.19 |
| V5M | -0.107 ± 0.28 |
| V5D | 0.045 ± 0.095 |
| Q64L | -0.52 ± 0.056 |
| Q64E | -0.338 ± 0.068 |
| Q64R | -0.709 ± 0.061 |
| Q64D | -1.22 ± 0.4 |
| Q64W | -0.618 ± 0.097 |
| Q64Y | -0.795 ± 0.45 |
| P3T | 0.063 ± 0.067 |
| P3D | 0.266 ± 0.074 |

| Variant | abundance fitness |
| --- | --- |
| P3Q | 0.178 ± 0.061 |
| P3F | 0.05 ± 0.078 |
| D22C | 0.035 ± 0.096 |
| D22M | -0.277 ± 0.4 |
| Q18K | -0.234 ± 0.26 |
| Q18H | -0.136 ± 0.33 |
| Q18R | -0.276 ± 0.13 |
| Q18A | -0.311 ± 0.069 |
| V7W | -1 ± 0.18 |
| V7G | -0.873 ± 0.1 |
| V7R | -0.998 ± 0.12 |
| V7P | -0.753 ± 0.18 |
| V7M | -0.646 ± 0.14 |
| A56Y | -0.421 ± 0.092 |
| A56P | -0.564 ± 0.16 |
| A56S | -0.278 ± 0.03 |
| A56I | -0.375 ± 0.11 |
| A56H | -0.123 ± 0.081 |
| A56K | -0.041 ± 0.13 |
| A56M | -0.416 ± 0.11 |
| A56E | -0.134 ± 0.049 |
| T34P | -0.454 ± 0.38 |
| T34V | -0.35 ± 0.15 |
| T34W | -0.615 ± 0.41 |

| Variant | abundance fitness |
| --- | --- |
| T34S | -0.205 ± 0.073 |
| T34R | -0.876 ± 0.17 |
| E14W | -0.96 ± 0.25 |
| E14D | 0.026 ± 0.15 |
| E14Y | -0.633 ± 0.35 |
| E14V | -0.199 ± 0.059 |
| E14L | -0.299 ± 0.094 |
| L32W | -0.113 ± 0.061 |
| L32C | -0.075 ± 0.075 |
| L32P | -0.821 ± 0.21 |
| C43Y | -0.662 ± 0.1 |
| C43L | -0.808 ± 0.083 |
| C43R | -0.831 ± 0.1 |
| C43Q | -0.72 ± 0.11 |
| C43H | -0.956 ± 0.15 |
| N49D | -0.057 ± 0.046 |
| N49V | -0.814 ± 0.076 |
| N49Q | -0.458 ± 0.055 |
| N49H | -0.355 ± 0.14 |
| N49I | -0.932 ± 0.23 |
| N49F | -0.923 ± 0.12 |
| T25R | -0.451 ± 0.045 |
| T25M | 0.092 ± 0.051 |
| T25W | -0.228 ± 0.05 |

| Variant | abundance fitness |
| --- | --- |
| T25C | -0.08 ± 0.063 |
| T25G | -0.544 ± 0.049 |
| I57R | -0.912 ± 0.11 |
| I57Q | -0.779 ± 0.18 |
| I57P | -1.04 ± 0.28 |
| E30A | -0.619 ± 0.34 |
| E30G | -0.617 ± 0.32 |
| E40M | -0.149 ± 0.073 |
| E40A | 0.038 ± 0.033 |
| L48I | -0.147 ± 0.14 |
| L48W | -0.888 ± 0.18 |
| L48H | -0.722 ± 0.18 |
| L48E | -0.678 ± 0.16 |
| L48G | -0.66 ± 0.077 |
| D47V | -0.542 ± 0.073 |
| D47M | -0.265 ± 0.05 |
| D47Y | -0.401 ± 0.12 |
| D47C | -0.305 ± 0.057 |
| D47K | 0.093 ± 0.063 |
| T52I | -0.417 ± 0.4 |
| T52R | -0.21 ± 0.057 |
| T52K | 0.189 ± 0.071 |
| T52C | -0.31 ± 0.24 |
